In patent publication US6462173B1, “Inhibitors of phosphoserine and phosphothreonine-proline-specific isomerases” (Max-Planck-Gesellschaft zur Forderung der, priority 1997, dated 2002):

Columns and labels:
[1] = biological target: T1, Pin1 (Homo sapiens, UniProt Q13526); experiment: Pin1 precipitation from interphase and mitotic HeLa extracts probed with antibodies to known mitotic phosphoproteins; assay type: binding
T1 construct: fusion protein containing full length Pin1 was bacterially expressed, purified; made in house
Procedure: (§1) To detect Pin1-binding proteins, either HeLa cells were lysed in or Xenopus extracts were diluted in a buffer (buffer A) containing 50 mM Tris-HCl, pH 8.0, 200 mM NaCl, 100 mM NaF, 1 mM sodium orthovanadate, 10% glycerol, 1% Triton X100, 10 μg/ml aprotinin, 50 μg/ml phenylmethylsulfonyl fluoride and 1 mM DTT. The lysates were preclarified with boiled S. aureus bacteria (CalBiochem) and then incubated with 10 μl of agarose beads containing various GST-Pin1 proteins or control GST for 2 h at 4° C. The precipitated proteins were washed 5 times in the same buffer and subjected to immunoblotting analysis. Immunoprecipitation and immunoblotting analysis using MPM-2 antibody (Davis et al. 1983), which was kindly provided by J. Kuang, Pin1 antibodies (Lu et al., 1996, kindly provided by M. White or newly generated), anti-phospho.Tyr antibody (UBI), anti-Cdc25C (Ogg, et al., 1994) (from H. Piwnica-Worms and Santa Cruz Biotechnology), anti-Cdc27, anti-Plk1 (Zymed), anti-Cdc2 (Solomon, M. J., M. Glotzer, T. H. Lee, M. Philippe and M. W. Kirschner. Cell 63:1013-1024 (1991), anti-human Myt1, anti-human cyclin B1 and anti-Xenopus cyclin B were performed, as described previously in Lu and Hunter, 1995; Lu et al., 1996).
Several known mitotic regulators such as cyclin B, Cdc25, Myt1, Plk1 and Cdc27 are phosphorylated at mitosis. To identify at least a few of the many Pin1 binding proteins, Pin1-binding proteins were precipitated from HeLa cells, or Xenopus extracts and probed with antibodies specific for known mitotic phosphoproteins. As shown previously, levels of Plk1 and cyclin B1 increased at mitosis, whereas similar amounts of Cdc25C were present in interphase and mitotic HeLa cells. […] Similarly, only the mitotic, but not the interphase form of Xenopus Cdc27 was precipitated by Pin1.

[2] = biological target: T1, Pin1; experiment: Precipitation with GST-Pin1 beads of synthesized phosphoproteins incubated with interphase and mitotic Xenopus extracts; assay type: binding; parameters: key: +: a week but above background interaction; ++: readily detectable interaction; +++: strong interaction; details: for Interaction with Pin1, Mitotic: mitotic Xenopus extracts
Procedure: The binding between Pin1 and all selected mitotic phosphoproteins was assayed by incubating synthesized proteins with interphase and mitotic Xenopus extracts, followed by precipitation with GST-Pin1beads. The Pin1 interactions with those proteins indicated with * were also confirmed by GST-Pin1 pull-down assay from endogenous interphase and mitotic HeLa cell extracts. +, a week but above background interaction; ++, readily detectable interaction; +++, strong interaction.
The mitotic phosphoproteins were translated in vitro using the TNT coupled transcription/translation kit (Promega) in a total volume of 10 μl in the presence of 8 μCi [^35S]methionine (1000 Ci/mmol) for 2 h at 30° C. They were then incubated in xenopus interphase and mitotic extracts as described (Stukenberg et al., 1997). These incubated clones were precipitated by Pin1 beads as described below. The Xenopus Mos and Weel clones were a kind gift of M. Murakami, G, F. Woude and J. Cooper; the Xenopus Cdc25 clone was a generous gift of W. Dunphy, T3 and T3S2 Cdc25 mutants were kindly provided by J. Maller (Izumi and Maller, 1993).
as §1
To gain a sense of the generality of the interaction between Pin1 and mitotic phosphoproteins and to confirm the Pin1 interaction with target proteins is indeed mediated by phosphorylation, the ability of Pin1 to bind other known mitotic phosphoproteins and a set of mitotic phosphoproteins identified by a systematic phosphoprotein screen (Stukenberg et al., Curr Biol 7:338-348 (1997). Proteins synthesized in vitro were phosphorylated in a cell cycle specific manner by incubating them in either Xenopus interphace or mitotic extracts. These labeled protein were subsequently incubated with GST-Pin1 beads that were extensively washed and the bound proteins analyzed by SDS-PAGE. To validate this method, Cdc25 was first tested. Again, the mitotically phosphorylated form of in vitro translated Cdc25 could be precipitated by GST-Pin1 beads. However, Cdc25 was not recognized by Pin1 if it was incubated in interphase extracts. […] Out of the 13 mitotic phosphoproteins examined, Pin1 bound 10 in a mitosis and phosphorylation-dependent manner (summarized in Table 1), including Weel, MP75 and MP110, MP75 and MP110 are Xenopus proteins related to microtubule-associated protein E-MAP-115 and the fission yeast G2 transcription factor Cdc5, respectively.

[3] = biological target: T1, Pin1; experiment: Confirmation of interaction between Pin1 and predicted Pin1 substrates; details: Pin1 binding confirmed in vitro (SC35 inferred from colocalization)
Procedure: On the basis of amino acid preferences deduced in the 6 positions surrounding the pS-P motif for optimal Pin1 binding, a weighted screening of the SWISS-PROT sequence database. Protein sequence database screening was performed with the program INDOVINATOR, using an entropy-based weighing technique to score for relative information content at each amino acid position flanking the pS/pT-P motif with the quantitative peptide library results, which are shown qualitatively in Table 3. […] Many of these proteins are involved in regulation of the cell cycle, cytoskeletal/spindle structure, DNA replication, transcription or RNA processing (Table 4).
Several of these predicted proteins, such as Rab4, Cdc25 and NIMA, undergo mitosis-specific phosphorylation (R. Heald and F. McKeon, Cell 61:579 (1990); E. Bailly, et al., Nature 350:715 (1991); A. Blangy, et al., Cell 83:1159 (1995): J. Kuang, et al., Mol. Biol. Cell 5:135 (1994); X. S. Ye, et al., EMBO J. 14:986 (1995)). Cdc25 and NIMA also binds to Pin1 in a phosphorylation-dependent manner, as described herein. Other proteins identified in this search, however, had not been previously suspected of interacting with Pin1; therefore, a few were further investigated as example cases. […] Thus, Pin1 binds a wide functional range of mitotic phosphoproteins.

T1 sequence (Q13526 whole entry, the tested form may be a part): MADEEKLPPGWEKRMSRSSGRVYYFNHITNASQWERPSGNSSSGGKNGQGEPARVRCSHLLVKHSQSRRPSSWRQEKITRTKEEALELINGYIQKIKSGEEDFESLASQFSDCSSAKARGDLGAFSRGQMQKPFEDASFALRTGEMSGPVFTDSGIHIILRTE

| Interaction with Pin1, Mitotic [2] | Binding Confirmed [3] | Molecule | also measured |
| --- | --- | --- | --- |
| – | – | PTP-1B: protein hyperphosphorylated during mitosis | precipitation by Pin1 [1]: not precipitated by Pin1 in either interphase or mitotic extracts |
| ++ | – | Mos: mitotic phosphoprotein, Xenopus Mos clone (protein) MPSPIPVERFLPRDLSPSIDLRPCSSPLELSHRKLPGGLPACSGRPRLLPPRLAWCSIDWEQVLLLEPLGSGGFGSVYRATYRGETVALKKVKRSTKNSLASRQSFWAELNAARLRHPHVVRVVAASASCPGDPGCPGTIIMEYTGTGTLHQRIYGRSPPLGAEICMRYARHVADGLRFLHRDGVVHLDLKPANVLLAPGDLCKIGDFGCSQRLREGDEAAGGEPCCTQLRHVGGTYTHRAPELLKGEPVTAKADIYSFAITLWQMVSRELPYTGDRQCVLYAVVAYDLRPEMGPLFSHTEEGRAARTIVQSCWAARPQERPNAEQLLERLEQECAMCTGGPPSCSPESNAPPPLGTGL | Interaction with Pin1, Interphase ([2]; interphase Xenopus extracts): + |
| – | Yes | Splicing factor SC35: nuclear/splicing protein, predicted Pin1 substrate (protein, UniProt Q01130 2-221, looked up) Serine/arginine-rich splicing …: SYGRPPPDVEGMTSLKVDNLTYRTSPDTLRRVFEKYGRVGDVYIPRDRYTKESRGFAFVRFHDKRDAEDAMDAMDGAVLDGRELRVQMARYGRPPDSHHSRRGPPPRRYGGGGYGRRSRSPRRRRRSRSRSRSRSRSRSRSRYSRSKSRSRTRSRSRSTSKSRSARRSKSKSSSVSRSRSRSRSRSRSRSPPPVSKRESKSRSRSKSPPKSPEEEGAVSS | – |
| +++ | – | Cdc25: mitotic phosphoprotein, phosphatase; Xenopus Cdc25 clone translated in vitro (protein) STELFSSTREEGSSGSGPSFRSNQRKMLNLLLERDTSFTVCPDVPRTPVGKFLGDSANLSILSGGTPKRCLDLSNLSSGEITATQLTTSADLDETGHLDSSGLQEVHLAGMNHDQHLMKCSPAQLLCSTPNGLDRGHRKRDAMCSSSANKENDNGNLVDSEMKYLGSPITTVPKLDKNPNLGEDQAEEISDELMEFSLKDQEAKVSRSGLYRSPSMPENLNRPRLKQVEKFKDNTIPDKVKKKYFSGQGKLRKGLCLKKTVSLCDITITQMLEEDSNQGHLIGDFSKVCALPTVSGKHQDLKYVNPETVAALLSGKFQGLIEKFYVIDCRYPYEYLGGHIQGALNLYSQEELFNFFLKKPIVPLDTQKRIIIVFHCEFSSERGPRMCRCLREEDRSLNQYPALYYPELYILKGGYRDFFPEYMELCEPQSYCPMHHQDHKTELLRCRSQSKVQEGERQLREQIALLVKDMSP | – |
| +++ | – | Plx1: mitotic phosphoprotein (protein) MAQVAGKKLTVAPEAAKPPGIPGSSSAVKEIPEILVDPRTRRRYLRGRFLGKGGFAKCYEITDLESREVFAGKIVPKTMLLKPHQKDKMTMEIAIQRSLDHRHVVGFHGFFEDNDFVYVVLELCRRRSLLELHKRRKAVTEPEARYYLKQTISGCQYLHSNRVIHRDLKLGNLFLNDEMEVKIGDFGLATKVEYDGERKKTLCGTPNYIAPEVLGKKGHSFEVDIWSIGCIMYTLLVGKPPFETSCLKETYMRIKKNEYSIPKHINPVAAALIQKMLRSDPTSRPTIDDLLNDEFFTSGYIPSRLPTTCLTVPPRFSIAPSTIDQSLRKPLTAINKGQDSPLVEKQVAPAKEEEMQQPEFTEPADCYLSEMLQQLTCLNAVKPSERALIRQEEAEDPASIPIFWISKWVDYSDKYGLGYQLCDNSVGVLFNDSTRLIMYNDGDSLQYIERNNTESYLNVRSYPTTLTKKITLLKYFRNYMSEHLLKAGANTTPREGDELARLPFLRTWFRTRSAIILHLSNGTVQINFFQDHTKIILCPLMAAVSYIDEKREFRTYKLSLIQEFGCCKELASRLRYARTMVEKLQSSKSAVAHVKASA | – |
| – | Yes | E-MAP-115: cytoskeletal/spindle protein, predicted Pin1 substrate (protein, UniProt Q14244 2-749, looked up) Ensconsin: AELGAGGDGHRGGDGAVRSETAPDSYKVQDKKNASSRPASAISGQNNNHSGNKPDPPPVLRVDDRQRLARERREEREKQLAAREIVWLEREERARQHYEKHLEERKKRLEEQRQKEERRRAAVEEKRRQRLEEDKERHEAVVRRTMERSQKPKQKHNRWSWGGSLHGSPSIHSADPDRRSVSTMNLSKYVDPVISKRLSSSSATLLNSPDRARRLQLSPWESSVVNRLLTPTHSFLARSKSTAALSGEAASCSPIIMPYKAAHSRNSMDRPKLFVTPPEGSSRRRIIHGTASYKKERERENVLFLTSGTRRAVSPSNPKARQPARSRLWLPSKSLPHLPGTPRPTSSLPPGSVKAAPAQVRPPSPGNIRPVKREVKVEPEKKDPEKEPQKVANEPSLKGRAPLVKVEEATVEERTPAEPEVGPAAPAMAPAPASAPAPASAPAPAPVPTPAMVSAPSSTVNASASVKTSAGTTDPEEATRLLAEKRRLAREQREKEERERREQEELERQKREELAQRVAEERTTRREEESRRLEAEQAREKEEQLQRQAEERALREREEAERAQRQKEEEARVREEAERVRQEREKHFQREEQERLERKKRLEEIMKRTRRTEATDKKTSDQRNGDIAKGALTGGTEVSALPCTTNAPGNGKPVGSPHVVTSHQSKVTVESTPDLEKQPNENGVSVQNENFEEIINLPIGSKPSRLDVTNSESPEIPLNPILAFDDEGTLGPLPQVDGVQTQQTAEVI | – |
| +++ | Yes | NIMA: mitotic phosphoprotein, kinase (protein) MAIALAEADKYEVLEKIGCGSFGIIRKVKRKSDGFILCRKEINYIKMSTKEREQLTAEFNILSSLRHPNIVAYYHREHLKASQDLYLYMEYCGGGDLSMVIKNLKRTNKYAEEDFVWRILSQLVTALYRCHYGTDPAEVGSNLLGPAPKPSGLKGKQAQMTILHRDLKPENIFLGSDNTVKLGDFGLSKLMHSHDFASTYVGTPFYMSPEICAAEKYTLRSDIWAVGCIMYELCQREPPFNARTHIQLVQKIREGKFAPLPDFYSSELKNVIASCLRVNPDHRPDTATLINTPVIRLMRREVELNNLSRAARKREEATMQKAKDVEQAFAKLEKEKQQIRSELENSIRREWEVKARLEIDRQVQNELDKLRKRFECEVQDRVAQEVEKQRRNANYREDASLRSSGHSSQMSSSNSEDSDFPSSTDISQLSLESPTNKAAKLPKKESRTPFTRSKTVVDSPMDIQMAEPSPISIASLSLSPRRTSATYSGKNIFAEGERKRPKFEPTLAYSDDEDDTPELPSPTRPKVKPDPFKAPSRPLLRQNTTALMQKLSTQPPIFPANPSRLPQMSAPDVRESKSRSPHRRLSKIPSSANLAADAGSPTRKNGVKSSPSKMNGGDEMFKAVMQRNMGGRTLVELAQARAGGRPIDEVKRCASDSRSGCSVPMKSADRDPPAVWDPERDEMPSPFLARGRKVIRNLR | – |
